Measured values published in the supplement of paper PMC7125110.
± gives the standard error. This sample holds only a part of the variants without activity.

B1: glmS ribozyme (parent)
chain: AUAAAAGCGCCAGAACUACAGAAAUGUAGUUGACGAGGAGGAGGUUUAUCGAAUUUUCGGCGGAUGCCUCCAAA

Legend:
Conditions in all cases: with glucosamine-6-phosphate
[1] = variants of: B1; assay: self-cleavage kobs at 40 uM GlcN6P; higher = faster cleavage; RNA array
Outline: (§1)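 The measurements used barcoded ribozyme variants on sequenced MiSeq chips, transcribed in situ by E. coli RNA polymerase and tracked at 37 °C with a hybridised Cy3 probe. Glucosamine-6-phosphate, 40 μM to 10 mM in HEPES/KCl/Mg(OAc)2 buffer, was flowed in while tiles were imaged over ~14 h. Baseline-normalised signals, also normalised to non-cleaving reference variants, gave per-tile medians that were fit to one- or two-exponential decays for kobs. kcat and KM resulted from weighted Michaelis–Menten fits across concentrations.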

[2] = variants of: B1; assay: self-cleavage kobs at 2500 uM GlcN6P; higher = faster cleavage; RNA array
Outline: as §1

[3] = variants of: B1; assay: self-cleavage kobs at 10000 uM GlcN6P; higher = faster cleavage; RNA array
Outline: as §1

[4] = variants of: B1; assay: self-cleavage kobs at 160 uM GlcN6P; higher = faster cleavage; RNA array
Outline: as §1

[5] = variants of: B1; assay: self-cleavage kobs at 640 uM GlcN6P; higher = faster cleavage; RNA array
Outline: as §1

Row | Variant | self-cleavage kobs at 40 uM GlcN6P [1] [s⁻¹] | self-cleavage kobs at 2500 uM GlcN6P [2] [s⁻¹] | self-cleavage kobs at 10000 uM GlcN6P [3] [s⁻¹] | self-cleavage kobs at 160 uM GlcN6P [4] [s⁻¹] | self-cleavage kobs at 640 uM GlcN6P [5] [s⁻¹]
1 | C34U G40U C67G | < 1e-05 | < 1e-05 | < 1e-05 | – | –
2 | C16U G37A | 7.36e-05 ± 1.1e-05 | 0.00123 ± 0.00015 | 0.00262 ± 0.00044 | 0.000108 ± 1.3e-05 | 0.000713 ± 7.9e-05
3 | C10G G13U A14U | < 1e-05 | – | – | – | –
4 | A6G A15G C71U | < 1e-05 | – | – | – | –
5 | A6U C8U | < 1e-05 | < 1e-05 | < 1e-05 | < 1e-05 | < 1e-05
6 | U30G A33C A42C | < 1e-05 | – | < 1e-05 | – | –
7 | G7U U31C G59U | < 1e-05 | – | – | – | –
8 | G59U A64U | < 1e-05 | < 1e-05 | < 1e-05 | – | < 1e-05
9 | A15G U65C U69A | < 1e-05 | – | – | – | –
10 | G41C C61G | < 1e-05 | < 1e-05 | – | < 1e-05 | < 1e-05
11 | G9U A33U A52U U56G | < 1e-05 | – | – | – | –
12 | C8U C16U A52G | < 1e-05 | – | – | – | –
13 | A42U U54C U55C | < 1e-05 | 5.79e-05 ± 1.6e-05 | 8.78e-05 ± 1.3e-05 | – | –
14 | C10U C11G U65G | < 1e-05 | – | – | – | –
15 | G29A A39G | 0.000267 ± 3.9e-05 | 0.00297 ± 0.00077 | 0.0102 ± 0.0018 | – | 0.00148 ± 0.00051
16 | G9U G43C U46G C67A | < 1e-05 | – | – | – | –
17 | A6U G38U A48U A52G C68A U69G | 7.26e-05 ± 3.3e-05 | – | 8.71e-05 ± 2.3e-05 | – | –
18 | G9A C16U | < 1e-05 | < 1e-05 | 3.09e-05 ± 1.5e-05 | < 1e-05 | < 1e-05
19 | G7C A52U | < 1e-05 | < 1e-05 | < 1e-05 | < 1e-05 | < 1e-05
20 | A6G G44U G62U G63A U69A | < 1e-05 | < 1e-05 | < 1e-05 | < 1e-05 | < 1e-05
21 | G13A A15C G38U A48G A52C | < 1e-05 | – | < 1e-05 | – | –
22 | U30A U49C U55A | < 1e-05 | – | – | – | –
23 | A42C U65C | < 1e-05 | < 1e-05 | < 1e-05 | < 1e-05 | < 1e-05

Row | Variant | self-cleavage kobs at 40 uM GlcN6P [1] [s⁻¹] | self-cleavage kobs at 2500 uM GlcN6P [2] [s⁻¹] | self-cleavage kobs at 10000 uM GlcN6P [3] [s⁻¹] | self-cleavage kobs at 160 uM GlcN6P [4] [s⁻¹] | self-cleavage kobs at 640 uM GlcN6P [5] [s⁻¹]
24 | G37U G59U | < 1e-05 | – | – | – | < 1e-05
25 | G29U G60C C70A | < 1e-05 | – | – | – | –
26 | G29A C61U G63A | < 1e-05 | – | – | – | –
27 | G7A G13U | < 1e-05 | – | – | < 1e-05 | < 1e-05
28 | A39C G41A | < 1e-05 | – | < 1e-05 | < 1e-05 | < 1e-05
29 | C10U U55G | < 1e-05 | – | 2.49e-05 ± 9.6e-06 | < 1e-05 | –
30 | G41U G60U U69C | < 1e-05 | – | < 1e-05 | – | –
31 | G29C G62A | < 1e-05 | – | – | – | < 1e-05
32 | G35A U46A | < 1e-05 | < 1e-05 | < 1e-05 | < 1e-05 | < 1e-05
33 | C10A A48U A52C A64G | < 1e-05 | – | – | – | –
34 | A36C G41U G44C U55G U56C C61G | < 1e-05 | – | – | – | –
35 | A15U A52U G66C | < 1e-05 | – | – | < 1e-05 | –
36 | G9A C11G | < 1e-05 | < 1e-05 | < 1e-05 | < 1e-05 | < 1e-05
37 | C11A G37C A39G G41A U47G | < 1e-05 | – | < 1e-05 | – | –
38 | C8U C11U U57G C67G | 0.000617 ± 0.0003 | – | 0.000608 ± 0.00023 | – | 7.99e-05 ± 3.8e-05
39 | C10G G37A G66U U69G C71A | < 1e-05 | – | – | < 1e-05 | –
40 | C11A G41A C50G G59U | < 1e-05 | – | < 1e-05 | – | –
41 | A15U A36G | < 1e-05 | – | < 1e-05 | – | < 1e-05
42 | G29C U56A | 4.47e-05 ± 1.2e-05 | 0.000439 ± 8.7e-05 | 0.00136 ± 0.00016 | 2.63e-05 ± 1.3e-05 | 0.000209 ± 3.6e-05
43 | C11U G35A | < 1e-05 | < 1e-05 | < 1e-05 | < 1e-05 | < 1e-05
44 | G59C G60U | < 1e-05 | < 1e-05 | < 1e-05 | < 1e-05 | < 1e-05
45 | C10A A48G U49G | < 1e-05 | < 1e-05 | < 1e-05 | < 1e-05 | < 1e-05
46 | U54G U56C | 6.58e-05 ± 1.3e-05 | 0.00123 ± 0.00029 | 0.00518 ± 0.0011 | 0.000146 ± 2.8e-05 | 0.000986 ± 0.00024
